The source of these data is publication PMC5673899, “Structural basis for receptor recognition of pollen tube attraction peptides” (Nature Communications, 2017).

The subject of assay [1] is MIK2. To be noted: cited from earlier work. The source says: (§1) More recently, progress has been made in the identification of sensory receptors for external cues during pollen tube guidance, [18]. Through genetic screening, two research groups identified different pollen tube specific receptor kinases (RKs) which can function as the receptors of AtLURE1 (refs. [19], [20]). […] By contrast, our data ... || page 2: co-receptor in the signaling system. Typos : - line 167 : Lue242 instead of Leu242 Reviewer #3 (Remarks to the Author): The Zhang et al. manuscript is a continuation of the study of pollen tube guidance to its female target to deliver sperm for fertilization, starting almost twenty years ago by the Higashiyama group, which recently reported a number of pollen receptor kinases (PRKs) as receptors for the attractant LURE1(- 2) from Arabidopsis. The Zhang et al study here caps it by elucidating the structure of LURE1-PRK6 on the atomic level. In principle, the study is an imminently publi ...

The subject of assay [2] is MDIS1. To be noted: cited from earlier work.
Excerpt: as §1

The test system of assay [3] is SUMO-tagged MDIS1LRR. As to the kind of experiment: Gel filtration assay with SUMO-tagged MDIS1^LRR with or without MIK1^LRR. The format is binding. Conditions: in the presence or absence of MIK1LRR, peer review file. The source says:
We thank the reviewer for his/her high evaluation of our work and constructive […]
We have conducted more experiments including functional analysis of […]
bind to either MIK1 or MIK2 in their binding experiments. Considering the importance of genetic data published by other groups, I recommend that the authors conduct more binding experiments using MDIS1, MDIS2, and mixtures thereof with […]
interaction of AtLURE1.2 with the extracellular LRR domain of MIK1 (MIK1LRR) or MIK2 (MIK2LRR). All the proteins were purified from insect cells. As shown in […]
AtLURE1.2 in the assays, because the AtLURE1.2 and MIK1LRR or MIK2LRR were well separated in gel filtration. This is strikingly different from PRK6LRR with AtLURE1.2, which co-migrated when tested using the same assay. To further test interaction of AtLURE1.2 with MIK1LRR or MIK2LRR, we used ITC to quantify the binding affinity between the insect cell-generated AtLURE1.2 and MIK1LRR or […]
binding of AtLURE1.2 to MIK1LRR or MIK2LRR (Supplementary Fig. 6). In contrast to […]
into the MIK1LRR- or MIK2LRR-containing cell (Supplementary Fig. 6).
We then tested whether LURE1.2 interacts with MIK1LRR or MIK2LRR in the presence of the extracellular LRR domain of MDIS1 (MDIS1LRR). We therefore tried to purify MDIS1LRR from insect cells. However, although several constructs had been tested, expression of MDIS1LRR protein alone was undetectable. […]
A general note: In gel filtration, larger molecules generally elute earlier.

B1: AtLURE1.2: mature form of AtLURE1.2 (residues 20–90), defensin-like cysteine-rich peptide expressed in insect cells (protein)
chain: TLINGSSDEERTYSFSPTTSPFDPRSLNQELKIGRIGYCFDCARACMRRGKYIRTCSFERKLCRCSISDIK
modifications: left off: His6, N-terminal, cleaved | SUMO, N-terminal, cleaved
notes: mature form of AtLURE1.2 (residues 20–90), defensin-like cysteine-rich peptide expressed in insect cells
Consider B1, for which the “binding to MIK2” value in assay [1] was “directly binds”. For the same molecule, the “binding to MDIS1” value in assay [2] is given as “directly binds”. Also, the “interaction in gel filtration” value is on record as “no interaction” in assay [3] and “well separated from the two proteins” in assay [3] (listed as LURE1.2).
